Molecular target: endogenous Tom40 (N. crassa (endogenous in isolated mitochondria)) (UniProt P24391)
Assay: cross-linking

endogenous Tom40 (from UniProt P24391 1-349) (natural protein)
stoichiometry N: 2

From paper PMC2156174
